In the nanobody polyreactivity screen of Harvey et al. (2022):

Experiment: yeast display, Sf9 membrane polyspecificity reagent, FACS + sequencing; frameworks hold sequencing errors
Summary of the method: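 Synthetic nanobody libraries on Saccharomyces cerevisiae BJ5465 were galactose-induced for 36–48 hours, stained 1 hour at 4 °C with 10% biotinylated, detergent-solubilized Sf9 membrane reagent and enriched on streptavidin microbeads. FACS then separated cells into low and high (top ~1%) gates by anti-HA (expression) and streptavidin (reagent binding) fluorescence. Genes were colony-PCR amplified, MiSeq 2 × 250 sequenced and CDR-length filtered. A clone's polyreactivity label is that of its gate of origin.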

Sequence | polyreactivity (PSR sort gate)
QVQLVESVGGLVQAGGSLRLSCAASGITFFNYAMGWYRQAPGKERELVARINWSGGSTYYADSVTGRFTISRDNAKNTVYLQMNSLKPEDTAVYYCAARYWLPRGRRYDYWGQGTQVTVSS | high polyreactivity
QVQLVESGGGLVQAGGSLRLSSAASGSIIQSNAIGGYRQAPGTERELVAAISYRGSRTYYADSVKGRFTISRDNAKNTVYIQMNSLKPDDTAVYYCAAVYRTYGIGPNNYWGQGTQVTVSS | high polyreactivity
QVQLQERGGGLVQAGGSLRQRCAASRNISASSDLGWYHQAPGKEREFVASITSGGTTYYADSVKGRFTISRDNAKNTVYLQMNSLKPEDTAVYYCAVGDPADAEFGYWGKGTQVTVSS | low polyreactivity
QDHLVESGGGLVQAGGSLRLSCAASGRTFGRNAMGWYRQAPGKERDFVAAITSSGGSTYYADSVKGRFTISRDNAKNTVYFQMNSLKPEDSAVFYCARSTRYYSWRRMDYWGQGTQVTVSS | high polyreactivity
QVQLVESGGGLVQAGGSLRLSCAASGRIFLHYAMGWYRQAPGKERELVAAISRSGGSTYYADSVKGRFTISRDNAKNTVYLQMNSLKPEDTAVYYCAAAYPFKTTEGYFYWGQGTQVTVSS | high polyreactivity
QVQLVESGGGLVQAGGSLRLSCAASGSTFLNYVMGWYRQAPGKERELVATINSGDSTTYADSVKGRFTISRDNAKNTVYLQMNSLKPEDTAVYYCNADPYYYSTYWSVKYDYWGQGTQVTVSS | low polyreactivity
QVQLVESGGGLVQAGGTLRLSCAPSGSIFTFYAMGWYRQAPGKERELVAAITRSGGSTYYADSVKGRFTISRDNAKNTVYLQMNSLKPEDTAVYYCAKDPSSYVTYRYYYWGQGSQVTVSS | low polyreactivity
QVQLVESGGGLVQAGGSLRLSCAASGSTFYQYAMGWYRQAPGKERELVAVITGSGGSTYYADSVKGRFTISRDNAKNTVYLQMNSLKPEDTAVYYCAAGARYFIYRTTSLGGNYWGQGTQVTVSS | high polyreactivity
QVQLVESGGGLVQAGGSLRLSCAASGSTFEYYAMGWYRQAPGKERELVAVITNGGSTNYADSVKGRFTISRDNAKNTVYLQKNSLKPEDTAVYYCNAERRVFYYFDYDFWGLGTQVTVSS | low polyreactivity
QVQLVESGGGLVQAGGSLRLSCAASGFTFLYNAMGWYRQAPGKERELVASIRTGTGTYYADSVKGRFTISRDNAKNTVYLQMNSLKPEDTAVYYCAAENFYPYTYYASDYWGQGTQVTVSS | high polyreactivity
QVQLVESGGGLVQAGGSLRLSSAASGSIFKINAMGWYRQAPGKETELVATITWSTGTTYYADSVKGRFTISRDNAKNTVYLQMNSLKPEDTAVYYCATDGDSTKLDYWGQVTQVTVSS | low polyreactivity
QVQLVESGGGLVQAGGSLRLSSAASGRIFQKYAMGWYRPAPGKERELVAAISSGDSTYADSVKGRFTISRDNAKNTVYLQMNSLKPEDTAVYYCAADDRWDYDYWGQGTQGTVSS | low polyreactivity
QVQLVESGGGLVQAGGSLRLSCAASGLTFYGNAMGWYIQAPGKERELVAAISSRGGRTYYADSVKGRFTISRDNAKNTVYLQMNSLKPEDTAVYYCNDRYKYPDMDYWGQGTQVTVSS | high polyreactivity
QVQREESGGGLFQAGGTLRLSCAASGFTFVWYAMGWNRQATGKERELVAAITRSGGSTYYADSVKGRFTISRDNAKNTVYLQMNSLKPEDTAVYYCNVSYGTFPGRALFANNFYYWGQGTQVTVSS | low polyreactivity
QVQLVESGGGLVQAGGSLRLSCAASGLTFAYYGMGWYRQAPGKEMELVAAITSSGGSTYYADSVKGRFTISRDNAKNTVYLQMNSLKPEDTAVYYCAAFVRQYGFDYWGQGTQVTVSS | low polyreactivity
QVQLVESGGGLVQAGGSLRLSCAASGFTFPRYAMGWYRQAPGKVRQLVAAISYRGGRTYYADSVKWRFTISRDNAKNTVFLQMNSLKPEDTAVYYCAADKTPSARYDYWGQGTQVTVSS | high polyreactivity

Sequence | polyreactivity (PSR sort gate)
QVQLVESGGGLVQAGGSLSLSCAASGRIFYVNTMGWYRQAPGKERELVATISSAASTNYADSVKGRFTISRDNAKNTVYLQMNSLKPEDTAVYYCNAAFYKEYYYWGQGTQVTVSS | low polyreactivity
QVQLVESGGGLVQAGGSLRLSCAASGITFYGYAMGWYRQAPGKERELVAVITSSGSSTYYADSVKGRFTISRDNAKNTVYLQMNSLKPEDTAVYDCNARPGRRSLRSRTYDYWGQGTQVTVSS | high polyreactivity
QVQLVESGGGLVQAGGRLRLSCAASGIISSAYAIGWYRQAPGKERELVAAISSGGSTKYADSVKGRFTISRDNAKNTVYLQMNSLKPEDTAVYYCAARTRYPYKVFGYWGQGTQVTVSS | high polyreactivity
QVQLVESGGGLVQAGGSLRLSCAASGRTFRAYAMGWYRQAPGKERELVARISWSGGNTYYADSVKGRFTISRDNAKNTVYLQMNSLKPEDTAVYYCAKTYYPYPAQIYTGYSWGQGTQVTVSS | low polyreactivity
QVQLVESGAGLVQAGGSLRLSCAASGSIINRNAMGGYRQAPGKERELVAAITRRGGSTYYADSVKGRFTISRDNAKNTVYLQKYSLKPEDTAVYYCNAVKALSSWSYEYWGQGTQGTVSS | high polyreactivity
QVQLVDSGGGLVHAGGSLRLSCAASGSSFTFYAMGWYRQAPGKERELVARISITGGSTYYADSVKGRFTISRDNAKNTVYLHMNSLKPEDTAVYYCAARYYGEHYDYWGQGTQVTVSS | low polyreactivity
QVQLVESGGGLVQAGGSLRLSCAASGSTFGYYAMGWYRQAPGKERELVAAISYNTGSTYYADSVKGRFTISRDNAKNTVYLQMNSLKPEDTAVFYCAASRSRYSVNWYNYWGQGTQVTVSS | high polyreactivity
QVQLVESGGGLVQAGGSLRLSCAASGRIFYGYAMGWYRQAPGKERELVAAISWRGGRTYYADSVKGRFTISRDNAKNTVYLQMNSLKPEDTAVYYCNKDFPPQGQLRNMYYWGQGTQVTVSS | high polyreactivity
QVQLVESGGGLVQAGGSLRLSCAASGIISYQKAMGWYRQAPGKERELVAGITYSGGSTYYADSVKGRFTISRDNAKNSVYLQMNSLKPEDTAVYYCAARVVYWTWAGLSKMDYWGQGTQVTVSS | high polyreactivity
QVQLVESGGGLVQAGGSLRLSCAASGLIFRYYAMGWYRQATGKEREFVAAITWRTGSTYYADSVKGRFTISRDNAKNTVYLQMNSLKPEDTAVYYCAARGGRRYDYWGQGTQVTVSS | high polyreactivity
QVQLVESGGGLVQAGGSLRLSCAASGITFGSYAMGWYRQAPGKEREFVAAISLSGGNTYYADSEKGRFTISRDNAKNPVYLQMNSLKPEDTAVYYCAADPFSSYYKMEYWGQGTQVTVSS | high polyreactivity
QVQLVESGGGLVQAVGSLRLSCADSGLPFYRNAMGWYRQARGKVRELVAAISLRGGSTYYADSVKGRFTISRDHAKNPVYLQMNSLKPEDTAVYYCAARRWWLNLDYWGQGTQVTVSS | high polyreactivity
QVQLVESGGGLVQAGGTLRLSCAASGSISIRNAMGWYRQAPGKERELVAAITYSGGSTYYADSVKGRFTISRDNAKNTVYLQMNSLKPEDTAVYYCAKDHYRFRYDYWGQGTQVTVSS | low polyreactivity
QVQHVESGGGLVQAGGSLRLSCAASGIIFSYNAMGWYRQAPGKERELVAAISSGGRTYYADSVKGRFTISRDNAKNTVYLQMNSLKPEDTAVYYCATTSPHRLYGYYYDYWGQGSQVTVSS | high polyreactivity
QVQLVESGGGLVQAGGSLRLSCAASGIIFRLNAMGWYRQAPGKERELVAAMRRRGGSTYYADSVKGRFTISRDNAKNTVYLQMNSLKPEDTAVYYCAKDPVTTFYKYDYWGQGTQVTVSS | low polyreactivity
QVQLVESGGGLVQAGGSLRLSCAASGRIFRWYAMGWYRQAPGKERELVATITRSGGSTYCADSVKGRFTISRDNAKNTVYLQMNSLKPEDTAVYYCAARWRLTPSWLPYVQSSAGYDYWGQGTQVTVSS | high polyreactivity
